Results reported in patent CN116178545A (GUANGDONG FEIPENG PHARMACEUTICAL CO LTD, dated 2023).

T1: 重组人CD86蛋白 (human, UniProt P42081 26-247)
T1 construct: The words 携带hFc标签的 stand before the first protein of the list; also called Acrobiosystem Cat.CD6-H5257
T1 sequence (looked up): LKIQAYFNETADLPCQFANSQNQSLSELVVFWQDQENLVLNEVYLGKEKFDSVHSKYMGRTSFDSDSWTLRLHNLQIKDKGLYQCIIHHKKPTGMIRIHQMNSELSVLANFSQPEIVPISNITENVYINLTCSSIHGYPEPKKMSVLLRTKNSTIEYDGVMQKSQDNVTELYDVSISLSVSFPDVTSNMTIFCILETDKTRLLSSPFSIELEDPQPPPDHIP

T2: 重组人ICOS蛋白 (human, UniProt Q9Y6W8 21-140)
T2 construct: The words 携带hFc标签的 stand before the first protein of the list; also called Acrobiosystem Cat.ICS-H5250
T2 sequence (looked up): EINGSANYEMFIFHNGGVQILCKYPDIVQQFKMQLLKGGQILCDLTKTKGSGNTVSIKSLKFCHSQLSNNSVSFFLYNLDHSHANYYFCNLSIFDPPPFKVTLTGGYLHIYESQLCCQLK

T3: 重组人ICOSLG蛋白 (human, UniProt O75144 19-258)
T3 construct: The words 携带hFc标签的 stand before the first protein of the list; also called Acrobiosystem Cat.B72-H5254
T3 sequence (looked up): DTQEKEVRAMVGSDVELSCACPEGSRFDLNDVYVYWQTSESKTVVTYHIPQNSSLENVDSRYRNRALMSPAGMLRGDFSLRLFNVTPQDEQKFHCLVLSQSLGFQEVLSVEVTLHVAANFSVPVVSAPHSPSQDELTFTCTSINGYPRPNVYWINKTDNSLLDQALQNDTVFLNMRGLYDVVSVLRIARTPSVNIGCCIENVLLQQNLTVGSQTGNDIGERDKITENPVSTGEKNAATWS

T4: 重组人PD-L2蛋白 (human, UniProt Q9BQ51 20-219)
T4 construct: The words 携带hFc标签的 stand before the first protein of the list; also called Acrobiosystem Cat.PD2-H5251
T4 sequence (looked up): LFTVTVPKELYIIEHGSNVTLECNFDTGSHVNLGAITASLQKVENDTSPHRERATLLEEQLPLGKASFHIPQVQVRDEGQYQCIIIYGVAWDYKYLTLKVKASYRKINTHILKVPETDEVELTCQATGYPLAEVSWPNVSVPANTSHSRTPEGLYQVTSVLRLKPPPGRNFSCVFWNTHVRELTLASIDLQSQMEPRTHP

T5: 重组人CD276蛋白 (human, UniProt Q5ZPR3-2 29-245)
T5 construct: The words 携带hFc标签的 stand before the first protein of the list; also called B7-H3; Acrobiosystem Cat.B73-H5253
T5 sequence (looked up): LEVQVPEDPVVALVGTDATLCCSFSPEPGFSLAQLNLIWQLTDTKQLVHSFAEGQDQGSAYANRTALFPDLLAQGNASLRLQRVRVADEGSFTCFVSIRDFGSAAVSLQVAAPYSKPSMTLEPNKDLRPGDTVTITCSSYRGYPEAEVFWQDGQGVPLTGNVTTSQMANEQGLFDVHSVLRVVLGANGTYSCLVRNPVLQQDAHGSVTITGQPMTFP


Assays:
人PD-L1 (on cells) = biological target: T6, 人PD-L1 (on cells) (human, UniProt Q9NZQ7 19-290); assay: flow cytometry on IFNγ-stimulated A375 cells
T6 construct: whole, on cells; One molecule for human PD-L1 on CHO-hPD-L1, on IFNγ-stimulated A375 and on CHO-hPD-L1-OKT3 cells; the cell is named under assay; also called CHO-hPD-L1稳定细胞株; 稳定表达人PD-L1的CHO

重组人CTLA-4蛋白 = biological target: T7, 重组人CTLA-4蛋白 (human, UniProt P16410 37-162); assay: ELISA, protein coated at 1μg/ml
T7 construct: The words 携带hFc标签的 stand before the first protein of the list; also called Acrobiosystem Cat.CT4-H5255

重组人CD28蛋白 = biological target: T8, 重组人CD28蛋白 (human, UniProt P10747 19-152); assay: ELISA, protein coated at 1μg/ml
T8 construct: The words 携带hFc标签的 stand before the first protein of the list; also called Acrobiosystem Cat.CD8-H525a

重组人CD86蛋白 = biological target: T1, 重组人CD86蛋白; assay: ELISA, protein coated at 1μg/ml
重组人ICOS蛋白 = biological target: T2, 重组人ICOS蛋白; assay: ELISA, protein coated at 1μg/ml
重组人PD-1蛋白(自产) = biological target: T9, 重组人PD-1蛋白(自产) (human, UniProt Q15116 25-167); assay: ELISA, protein coated at 1μg/ml
T9 construct: The words 携带hFc标签的 stand before the first protein of the list

重组人ICOSLG蛋白 = biological target: T3, 重组人ICOSLG蛋白; assay: ELISA, protein coated at 1μg/ml
重组人PD-L2蛋白 = biological target: T4, 重组人PD-L2蛋白; assay: ELISA, protein coated at 1μg/ml
重组人CD276蛋白 = biological target: T5, 重组人CD276蛋白; assay: ELISA, protein coated at 1μg/ml
小鼠PD-L1 (on CHO cells) = biological target: T10, 小鼠PD-L1 (on CHO cells) (mouse, UniProt Q9EP73 19-290); assay: flow cytometry on CHO-mPD-L1 cells
T10 construct: whole, on cells; also called CHO-mPD-L1稳定细胞株; 稳定表达全长小鼠PD-L1的CHO
T10 sequence (Q9EP73 19-290): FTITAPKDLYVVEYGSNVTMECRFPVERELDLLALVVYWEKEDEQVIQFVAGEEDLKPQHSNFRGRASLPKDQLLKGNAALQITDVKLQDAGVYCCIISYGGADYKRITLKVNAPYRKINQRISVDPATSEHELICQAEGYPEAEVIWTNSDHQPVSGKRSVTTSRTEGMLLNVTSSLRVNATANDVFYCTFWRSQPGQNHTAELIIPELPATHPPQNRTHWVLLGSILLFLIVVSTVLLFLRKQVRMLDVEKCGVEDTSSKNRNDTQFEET

T9 sequence (Q15116 25-167): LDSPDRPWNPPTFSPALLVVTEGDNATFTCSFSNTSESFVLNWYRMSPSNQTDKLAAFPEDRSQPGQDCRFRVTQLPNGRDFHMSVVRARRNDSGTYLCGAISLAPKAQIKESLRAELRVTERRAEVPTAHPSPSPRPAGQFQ
T7 sequence (P16410 37-162): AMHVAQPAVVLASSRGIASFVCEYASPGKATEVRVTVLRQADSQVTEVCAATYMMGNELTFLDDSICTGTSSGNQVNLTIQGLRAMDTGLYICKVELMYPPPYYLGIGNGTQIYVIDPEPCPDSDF
T6 sequence (Q9NZQ7 19-290): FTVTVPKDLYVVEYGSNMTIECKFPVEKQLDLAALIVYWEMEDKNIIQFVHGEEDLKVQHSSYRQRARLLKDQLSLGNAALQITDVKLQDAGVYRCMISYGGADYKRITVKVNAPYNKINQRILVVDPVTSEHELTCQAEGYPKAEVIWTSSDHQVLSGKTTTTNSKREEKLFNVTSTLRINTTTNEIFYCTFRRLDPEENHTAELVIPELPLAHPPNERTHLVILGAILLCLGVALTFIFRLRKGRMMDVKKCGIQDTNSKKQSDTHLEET

Row | Binder | EC50 (人PD-L1 (on cells)) [pM] | binding result (重组人CTLA-4蛋白) | binding result (重组人CD28蛋白) | binding result (重组人CD86蛋白) | binding result (重组人ICOS蛋白) | binding result (重组人PD-1蛋白(自产)) | binding result (重组人ICOSLG蛋白) | binding result (重组人PD-L2蛋白) | binding result (重组人CD276蛋白) | binding result (小鼠PD-L1 (on CHO cells))
1 | 176L1H2 (antibody, V domains shown, Whole humanized mAb expressed in 293 cells; detected with anti-human IgG; also called 抗人PD-L1人源化抗体176L1H2) VH: QVQLQESGPGLVKPSETLSLTCAVYGDSITSGYWNWIRKPPGKKLEYIGYISYTGSTYQNPSLKSRITMSRDTSKNQYYLKLSSVTAADTAVYYCARSRAWIRTYFDYWGQGTLVTVSS VL: EIVLTQSPDFQSVTPKEKVTITCSVSSSISSSNLHWYQQKPDQSPKLWIYGTSNLASGVPSRFSGSGSGTDYTLTINSLEAEDAATYYCQQWSSYPLTFGQGTKLEIKR | ~200 | no binding (tested: 10μg/ml) | no binding (tested: 10μg/ml) | no binding (tested: 10μg/ml) | no binding (tested: 10μg/ml) | no binding (tested: 10μg/ml) | no binding (tested: 10μg/ml) | no binding (tested: 10μg/ml) | no binding (tested: 10μg/ml) | no binding (tested: 20μg/ml)
2 | 176L2H1 (antibody, V domains shown, Whole humanized mAb expressed in 293 cells; detected with anti-human IgG; also called 抗人PD-L1人源化抗体176L2H1) VH: QVQLQESGPGLVKPSETLSLTCAVYGDSITSGYWNWIRKPPGKGLEYIGYISYTGSTYQNPSLKSRITMSRDTSKNQYYLKLSSVTAADTAVYYCARSRAWIRTYFDYWGQGTLVTVSS VL: EIVLTQSPDFQSVTPKEKVTITCSVSSSISSSNLHWYQQKPDQSPKPWIYGTSNLASGVPSRFSGSGSGTDYTLTINSLEAEDAATYYCQQWSSYPLTFGQGTKLEIKR | ~200 | no binding (tested: 10μg/ml) | no binding (tested: 10μg/ml) | no binding (tested: 10μg/ml) | no binding (tested: 10μg/ml) | no binding (tested: 10μg/ml) | no binding (tested: 10μg/ml) | no binding (tested: 10μg/ml) | no binding (tested: 10μg/ml) | no binding (tested: 20μg/ml)
3 | 176L2H2 (antibody, V domains shown, Whole humanized mAb expressed in 293 cells; detected with anti-human IgG; also called 抗人PD-L1人源化抗体176L2H2) VH: QVQLQESGPGLVKPSETLSLTCAVYGDSITSGYWNWIRKPPGKKLEYIGYISYTGSTYQNPSLKSRITMSRDTSKNQYYLKLSSVTAADTAVYYCARSRAWIRTYFDYWGQGTLVTVSS VL: EIVLTQSPDFQSVTPKEKVTITCSVSSSISSSNLHWYQQKPDQSPKPWIYGTSNLASGVPSRFSGSGSGTDYTLTINSLEAEDAATYYCQQWSSYPLTFGQGTKLEIKR | ~200 | no binding (tested: 10μg/ml) | no binding (tested: 10μg/ml) | no binding (tested: 10μg/ml) | no binding (tested: 10μg/ml) | no binding (tested: 10μg/ml) | no binding (tested: 10μg/ml) | no binding (tested: 10μg/ml) | no binding (tested: 10μg/ml) | no binding (tested: 20μg/ml)

More lines, now with the values ahead:

Row | EC50 (人PD-L1 (on cells)) [pM] | binding result (重组人CTLA-4蛋白) | binding result (重组人CD28蛋白) | binding result (重组人CD86蛋白) | binding result (重组人ICOS蛋白) | binding result (重组人PD-1蛋白(自产)) | binding result (重组人ICOSLG蛋白) | binding result (重组人PD-L2蛋白) | binding result (重组人CD276蛋白) | binding result (小鼠PD-L1 (on CHO cells)) | Binder
4 | ~200 | no binding (tested: 10μg/ml) | no binding (tested: 10μg/ml) | no binding (tested: 10μg/ml) | no binding (tested: 10μg/ml) | no binding (tested: 10μg/ml) | no binding (tested: 10μg/ml) | no binding (tested: 10μg/ml) | no binding (tested: 10μg/ml) | no binding (tested: 20μg/ml) | 176L1H3 (antibody, V domains shown, Whole humanized mAb expressed in 293 cells; detected with anti-human IgG; also called 抗人PD-L1人源化抗体176L1H3) VH: QVQLQESGPGLVKPSETLSLTCAVYGDSITSGYWNWIRKPPGKKLEYIGYISYTGSTYQNPSLKSRITFSRDTSKNQYYLKLSSVTAADTAVYYCARSRAWIRTYFDYWGQGTLVTVSS VL: EIVLTQSPDFQSVTPKEKVTITCSVSSSISSSNLHWYQQKPDQSPKLWIYGTSNLASGVPSRFSGSGSGTDYTLTINSLEAEDAATYYCQQWSSYPLTFGQGTKLEIKR
5 | ~200 | no binding (tested: 10μg/ml) | no binding (tested: 10μg/ml) | no binding (tested: 10μg/ml) | no binding (tested: 10μg/ml) | no binding (tested: 10μg/ml) | no binding (tested: 10μg/ml) | no binding (tested: 10μg/ml) | no binding (tested: 10μg/ml) | no binding (tested: 20μg/ml) | 176L1H1 (antibody, V domains shown, Whole humanized mAb expressed in 293 cells, protein A purified; hIgG1 isotype control; detected with anti-human IgG; also called 抗人PD-L1人源化抗体176L1H1) VH: QVQLQESGPGLVKPSETLSLTCAVYGDSITSGYWNWIRKPPGKGLEYIGYISYTGSTYQNPSLKSRITMSRDTSKNQYYLKLSSVTAADTAVYYCARSRAWIRTYFDYWGQGTLVTVSS VL: EIVLTQSPDFQSVTPKEKVTITCSVSSSISSSNLHWYQQKPDQSPKLWIYGTSNLASGVPSRFSGSGSGTDYTLTINSLEAEDAATYYCQQWSSYPLTFGQGTKLEIKR
6 | ~200 | no binding (tested: 10μg/ml) | no binding (tested: 10μg/ml) | no binding (tested: 10μg/ml) | no binding (tested: 10μg/ml) | no binding (tested: 10μg/ml) | no binding (tested: 10μg/ml) | no binding (tested: 10μg/ml) | no binding (tested: 10μg/ml) | no binding (tested: 20μg/ml) | 176L3H2 (antibody, V domains shown, Whole humanized mAb expressed in 293 cells; detected with anti-human IgG; also called 抗人PD-L1人源化抗体176L3H2) VH: QVQLQESGPGLVKPSETLSLTCAVYGDSITSGYWNWIRKPPGKKLEYIGYISYTGSTYQNPSLKSRITMSRDTSKNQYYLKLSSVTAADTAVYYCARSRAWIRTYFDYWGQGTLVTVSS VL: EIVLTQSPDFQSVTPKEKVTITCSVSSSISSSNLHWYQQKPDQSPKPWIYGTSNLASGVPSRFSGSGSGTDYSLTINSLEAEDAATYYCQQWSSYPLTFGQGTKLEIKR
7 | ~200 | no binding (tested: 10μg/ml) | no binding (tested: 10μg/ml) | no binding (tested: 10μg/ml) | no binding (tested: 10μg/ml) | no binding (tested: 10μg/ml) | no binding (tested: 10μg/ml) | no binding (tested: 10μg/ml) | no binding (tested: 10μg/ml) | no binding (tested: 20μg/ml) | 176L2H3 (antibody, V domains shown, Whole humanized mAb expressed in 293 cells; detected with anti-human IgG; also called 抗人PD-L1人源化抗体176L2H3) VH: QVQLQESGPGLVKPSETLSLTCAVYGDSITSGYWNWIRKPPGKKLEYIGYISYTGSTYQNPSLKSRITFSRDTSKNQYYLKLSSVTAADTAVYYCARSRAWIRTYFDYWGQGTLVTVSS VL: EIVLTQSPDFQSVTPKEKVTITCSVSSSISSSNLHWYQQKPDQSPKPWIYGTSNLASGVPSRFSGSGSGTDYTLTINSLEAEDAATYYCQQWSSYPLTFGQGTKLEIKR
